{
  "source": "patent US20110319287A1",
  "about": "“MODULATOR ASSAY” (ADDEX PHARMA S.A., priority 2009, published 2011)",
  "molecules": {"B1": {"name": "CD40L: Fc [human]: CD40L [human] from Apotech Corporation (protein)", "chain": "GDQNPQIAAHVISEASSKTTSVLQWAEKGYYTMSNNLVTLENGKQLTVKRQGLYYIYAQVTFCSNREASSQAPFIASLCLKSPGRFERILLRAANTHSSAKPCGQQSIHLGGVFELQPGASVFVNVTDPSQVSHGTGFTSFGLLKL", "modifications": "left off: a dimerising Fc or GST", "notes": "Fc [human]: CD40L [human] from Apotech Corporation"}, "B2": {"name": "DcR3: DR3 inhibitor; Recombinant Human DcR3/TNFRSF6B/Fc Chimera from R&D Systems (protein)", "chain": "VAETPTYPWRDAETGERLVCAQCPPGTFVQRPCRRDSPTTCGPCPPRHYTQFWNYLERCRYCNVLCGEREEEARACHATHNRACRCRTGFFAHAGFCLEHASCPPGAGVIAPGTPSQNTQCQPCPPGTFSASSSSSEQCQPHRNCTALGLALNVPGSSSHDTLCTSCTGFPLSTRVPGAEECERAVIDFVAFQDISIKRLQRLLQALEAPEGWGPTPRAGRAALQLKLRRRLTELLGAQDGALLVRLLQALRVARMPGLERSVRERFLPVH", "modifications": "left off: a dimerising Fc or GST", "notes": "Recombinant Human DcR3/TNFRSF6B/Fc Chimera from R&D Systems"}},
  "key": {"[1]": {"system": "TNF-induced relocalisation of EYFP-TRADD (TNFR1-containing complex I) in HeLa cells", "assay": "TNF-mediated relocation of fluorescently tagged TRADD in Clone #49-E2 HeLa cells, 384-well (Example 2)", "assay_type": "cell-based, human", "details": "added instead of TNF; FIG. 12", "description": "The following experimental procedure to detect the reporter molecule in the presence of absence of a “test” compound (or molecule, as described below) was conducted.\nOn day 1, 10^3 cells per well were plated in thin glass bottom 384 wells plate in 50 μl of culture media (DMEM glutamax, 10% FBS, peni-strep, geneticin, hygromycin). The cells were incubated overnight at 37° C. On day 2, media was aspirated, and 35 μl of warm DMEM, 2, 5% FBS, HEPES 10 mM added. Then, 15 μl of 4× the test compound diluted in DMEM, 2, 5% FBS, HEPES 10 mM was added to cells using a Biomek laboratory automation workstation (Beckman-Coulter). This was incubated at room temperature for 1.5 min. […] The cells were washed three times with PBS 1× using an Embla 384 Cell Washer (Molecular Devices). Cells were fixed by adding PBS 1×, 5% PFA+Hoescht 0.2 μg/ml using a Multidrop 384 dispensor (Thermo Scientific; 30 μl/well) followed by an incubation for 20 min at room temperature in the dark. After a further three washes of the cells with PBS 1× using the Embla 384 Cell Washer, 60 μl per well of PBS 1×, 1% peni-strep was added. The plate was covered with a transparent sealing film. Readings were then taken on the Scientific Cellomics ArrayScan HCS Reader automated microscope system as used in Example 1."}, "[2]": {"target": "T1, TL1A-activated DR3 receptor (Homo sapiens, UniProt Q93038, P167L)", "T1 construct": "(N); expressed in transfected cells; host or cells: HeLa Tet-On cells stably expressing TRADD-EYFP, transfected with pTRE2-DR3 (HeLa TRADD DR3)", "T1 sequence (Q93038 with tags, fused parts or gaps P167L)": "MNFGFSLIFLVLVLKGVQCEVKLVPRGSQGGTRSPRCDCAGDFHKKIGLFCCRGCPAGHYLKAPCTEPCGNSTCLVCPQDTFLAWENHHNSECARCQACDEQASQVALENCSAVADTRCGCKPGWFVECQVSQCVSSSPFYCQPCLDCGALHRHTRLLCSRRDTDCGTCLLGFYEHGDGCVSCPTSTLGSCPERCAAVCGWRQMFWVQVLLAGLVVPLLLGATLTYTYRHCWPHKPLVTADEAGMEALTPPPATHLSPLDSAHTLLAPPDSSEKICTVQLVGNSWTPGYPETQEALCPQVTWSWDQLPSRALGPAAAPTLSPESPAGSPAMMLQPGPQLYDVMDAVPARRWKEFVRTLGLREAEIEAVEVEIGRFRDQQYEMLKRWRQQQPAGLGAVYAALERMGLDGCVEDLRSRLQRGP", "assay": "TL1A-induced TRADD-EYFP relocation in HeLa TRADD DR3 recombinant cells (Example 3)", "assay_type": "cell-based", "details": "in the presence of 300 ng/ml TL1A; FIG. 17", "excerpt": "(§1) In a further example of the present invention, a method involving the TL1A-activated DR3 receptor was developed. The TRADD-EYFP HeLa clones comprising the TRADD-EYFP reporter molecule transfected into HeLa cells as described in Example 1 was employed. The DR3 receptor (cDNA sequence shown in SEQ ID NO: 19 and encoded protein shown in SEQ ID NO: 20) which had been cloned in the vector pCR3.1 (Invitrogen) was transferred into the vector pTre2 (Clontech) using the Gateway® cloning technique with the primers Attb1 Forward primer (SEQ ID NO: 21) and Attb2 Reverse primer (SEQ ID NO: 22), yielding a pTRE2-DR3 expression vector (SEQ ID NO: 23). This expression vector was then transfected into the TRADD-EYFP HeLa clones to produce a double transformants designated HeLa TRADD DR3.\n(§2) Monitoring and quantification of the TRADD-EYFP reporter molecule was conducted as described in Examples 1 and 2 above. […] The data of FIG. 17 are depicted graphically in FIG. 18."}, "[3]": {"target": "T2, TL1A-activated DR3 receptor (Homo sapiens, UniProt Q93038)", "T2 construct": "(N); expressed in transfected cells; host or cells: HeLa Tet-On cells stably expressing TRADD-EYFP, transfected with pTRE2-DR3 (HeLa TRADD DR3)", "T2 sequence (Q93038 with tags, fused parts or gaps P167L)": "T1 sequence (Q93038 with tags, fused parts or gaps P167L)", "assay": "TL1A-induced TRADD-EYFP relocation in HeLa TRADD DR3 recombinant cells (Example 3)", "assay_type": "cell-based", "details": "in the presence of 300 ng/ml TL1A; FIG. 17", "excerpt": "as §1, §2"}, "[4]": {"system": "TNF-induced TRADD relocalisation in HeLa TRADD DR3 cells", "assay": "TNF-induced TRADD-EYFP relocation in HeLa TRADD DR3 recombinant cells (Example 3)", "assay_type": "cell-based, human", "details": "in the presence of 100 ng/ml TNF; FIG. 19", "excerpt": "as §1, §2"}},
  "data": [
    {"molecule": "B1", "values": [
      {"measurement": "selectivity: relocalisation of the reporter molecule EYFP-TRADD effected by other compounds or molecules", "setting": "[1]", "value": "not effected"}
    ]},
    {"molecule": "B2", "values": [
      {"measurement": "dose-dependent inhibition of TL1A-induced relocalisation", "setting": "[2]", "value": "dose-dependently inhibited"},
      {"measurement": "IC50 on TL1A-induced relocalisation", "setting": "[3]", "value": 1.41, "unit": "µg/mL"},
      {"measurement": "dose-dependent inhibition of TNF-induced relocalisation", "setting": "[4]", "value": "not"}
    ]}
  ]
}
